Measured values from patent publication US20140087995A1 (published 2014).
Numbered stars: 1 amine (or outer) side, 2 acyl side, 3 side chain; on linkers, the order of the positions; unused ones are H or OH. Bridge positions count the residues as written; N and C are the ends. Side chains are listed from the residue outwards. Ends that are not written are not given here. * marks the point of attachment. C20 diacid = O=C(O)CCCCCCCCCCCCCCCCCCC(=O)*; γGlu = O=C(O)[C@H](CCC(=O)[*:2])N[*:1]

T1: human amylin receptor (human, UniProt P30988 25-474; O60896 24-148, limits assumed)
T1 construct: whole, on cells; Calcitonin receptor plus RAMP-3 gives the amylin 3(a) receptor; membranes of Amylin 3(a)/CRE-luc cells were used; also called hAmylin-R; hAmylinR
T1 sequence (looked up) 1: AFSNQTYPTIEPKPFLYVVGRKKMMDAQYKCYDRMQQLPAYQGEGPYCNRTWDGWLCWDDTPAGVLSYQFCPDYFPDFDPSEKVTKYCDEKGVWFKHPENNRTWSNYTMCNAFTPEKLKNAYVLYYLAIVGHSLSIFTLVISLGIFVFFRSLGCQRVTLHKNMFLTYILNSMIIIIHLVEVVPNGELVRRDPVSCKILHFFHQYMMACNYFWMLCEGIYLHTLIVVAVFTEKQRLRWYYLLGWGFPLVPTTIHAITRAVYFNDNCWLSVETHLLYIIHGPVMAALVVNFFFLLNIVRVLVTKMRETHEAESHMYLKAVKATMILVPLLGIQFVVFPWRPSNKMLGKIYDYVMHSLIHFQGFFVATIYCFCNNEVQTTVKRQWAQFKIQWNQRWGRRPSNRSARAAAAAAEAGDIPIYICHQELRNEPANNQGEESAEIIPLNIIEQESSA
T1 sequence (looked up) 2: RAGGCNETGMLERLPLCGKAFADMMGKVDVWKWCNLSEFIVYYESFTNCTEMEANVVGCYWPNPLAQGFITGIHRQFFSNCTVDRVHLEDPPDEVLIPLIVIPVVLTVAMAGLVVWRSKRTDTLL

B1: N^ε1-[(4S)-4-carboxy-4-(19-carboxynonadecanoylamino)butanoyl]-[His14,Arg17,Pro21,Pro27,His34]-h-amylin (peptide)
peptide: K([γGlu-C20 diacid])CNTATCATQRLAHFLRHSSPNFGAIPSSTNVGHNTY-NH2
modifications: disulfide 2-7; N-terminus assumed
SMILES: CC[C@H](C)[C@H](NC(=O)[C@H](C)NC(=O)CNC(=O)[C@H](Cc1ccccc1)NC(=O)[C@H](CC(N)=O)NC(=O)[C@@H]1CCCN1C(=O)[C@H](CO)NC(=O)[C@H](CO)NC(=O)[C@H](Cc1c[nH]cn1)NC(=O)[C@H](CCCNC(=N)N)NC(=O)[C@H](CC(C)C)NC(=O)[C@H](Cc1ccccc1)NC(=O)[C@H](Cc1c[nH]cn1)NC(=O)[C@H](C)NC(=O)[C@H](CC(C)C)NC(=O)[C@H](CCCNC(=N)N)NC(=O)[C@H](CCC(N)=O)NC(=O)[C@@H](NC(=O)[C@H](C)NC(=O)[C@@H]1CSSC[C@H](NC(=O)[C@@H](N)CCCCNC(=O)CC[C@H](NC(=O)CCCCCCCCCCCCCCCCCCC(=O)O)C(=O)O)C(=O)N[C@@H](CC(N)=O)C(=O)N[C@@H]([C@@H](C)O)C(=O)N[C@@H](C)C(=O)N[C@@H]([C@@H](C)O)C(=O)N1)[C@@H](C)O)C(=O)N1CCC[C@H]1C(=O)N[C@@H](CO)C(=O)N[C@@H](CO)C(=O)N[C@H](C(=O)N[C@@H](CC(N)=O)C(=O)N[C@H](C(=O)NCC(=O)N[C@@H](Cc1c[nH]cn1)C(=O)N[C@@H](CC(N)=O)C(=O)N[C@H](C(=O)N[C@@H](Cc1ccc(O)cc1)C(N)=O)[C@@H](C)O)C(C)C)[C@@H](C)O
notes: also called 14H, 17R, 21P, 27P, 34H
B2: N^ε1-[(4S)-4-carboxy-4-(19-carboxynonadecanoylamino)butanoyl]-[His14,Arg17,Pro21,Pro27,His35]-h-amylin (peptide)
peptide: K([γGlu-C20 diacid])CNTATCATQRLAHFLRHSSPNFGAIPSSTNVGSHTY-NH2
modifications: disulfide 2-7; N-terminus assumed
SMILES: CC[C@H](C)[C@H](NC(=O)[C@H](C)NC(=O)CNC(=O)[C@H](Cc1ccccc1)NC(=O)[C@H](CC(N)=O)NC(=O)[C@@H]1CCCN1C(=O)[C@H](CO)NC(=O)[C@H](CO)NC(=O)[C@H](Cc1c[nH]cn1)NC(=O)[C@H](CCCNC(=N)N)NC(=O)[C@H](CC(C)C)NC(=O)[C@H](Cc1ccccc1)NC(=O)[C@H](Cc1c[nH]cn1)NC(=O)[C@H](C)NC(=O)[C@H](CC(C)C)NC(=O)[C@H](CCCNC(=N)N)NC(=O)[C@H](CCC(N)=O)NC(=O)[C@@H](NC(=O)[C@H](C)NC(=O)[C@@H]1CSSC[C@H](NC(=O)[C@@H](N)CCCCNC(=O)CC[C@H](NC(=O)CCCCCCCCCCCCCCCCCCC(=O)O)C(=O)O)C(=O)N[C@@H](CC(N)=O)C(=O)N[C@@H]([C@@H](C)O)C(=O)N[C@@H](C)C(=O)N[C@@H]([C@@H](C)O)C(=O)N1)[C@@H](C)O)C(=O)N1CCC[C@H]1C(=O)N[C@@H](CO)C(=O)N[C@@H](CO)C(=O)N[C@H](C(=O)N[C@@H](CC(N)=O)C(=O)N[C@H](C(=O)NCC(=O)N[C@@H](CO)C(=O)N[C@@H](Cc1c[nH]cn1)C(=O)N[C@H](C(=O)N[C@@H](Cc1ccc(O)cc1)C(N)=O)[C@@H](C)O)C(C)C)[C@@H](C)O
notes: also called 14H, 17R, 21P, 27P, 35H
B3: N^ε1-[(4S)-4-carboxy-4-(19-carboxynonadecanoylamino)butanoyl]-[His14,Arg17,Pro21,Pro27,Pro31,Pro34]-h-amylin (peptide)
peptide: K([γGlu-C20 diacid])CNTATCATQRLAHFLRHSSPNFGAIPSSTPVGPNTY-NH2
modifications: disulfide 2-7; N-terminus assumed
SMILES: CC[C@H](C)[C@H](NC(=O)[C@H](C)NC(=O)CNC(=O)[C@H](Cc1ccccc1)NC(=O)[C@H](CC(N)=O)NC(=O)[C@@H]1CCCN1C(=O)[C@H](CO)NC(=O)[C@H](CO)NC(=O)[C@H](Cc1c[nH]cn1)NC(=O)[C@H](CCCNC(=N)N)NC(=O)[C@H](CC(C)C)NC(=O)[C@H](Cc1ccccc1)NC(=O)[C@H](Cc1c[nH]cn1)NC(=O)[C@H](C)NC(=O)[C@H](CC(C)C)NC(=O)[C@H](CCCNC(=N)N)NC(=O)[C@H](CCC(N)=O)NC(=O)[C@@H](NC(=O)[C@H](C)NC(=O)[C@@H]1CSSC[C@H](NC(=O)[C@@H](N)CCCCNC(=O)CC[C@H](NC(=O)CCCCCCCCCCCCCCCCCCC(=O)O)C(=O)O)C(=O)N[C@@H](CC(N)=O)C(=O)N[C@@H]([C@@H](C)O)C(=O)N[C@@H](C)C(=O)N[C@@H]([C@@H](C)O)C(=O)N1)[C@@H](C)O)C(=O)N1CCC[C@H]1C(=O)N[C@@H](CO)C(=O)N[C@@H](CO)C(=O)N[C@H](C(=O)N1CCC[C@H]1C(=O)N[C@H](C(=O)NCC(=O)N1CCC[C@H]1C(=O)N[C@@H](CC(N)=O)C(=O)N[C@H](C(=O)N[C@@H](Cc1ccc(O)cc1)C(N)=O)[C@@H](C)O)C(C)C)[C@@H](C)O
notes: also called 14H, 17R, 21P, 27P, 31P, 34P
B4: N^ε1-[(4S)-4-carboxy-4-(19-carboxynonadecanoylamino)butanoyl]-[His14,Arg17,Pro21,Pro27,Pro31]-h-amylin (peptide)
peptide: K([γGlu-C20 diacid])CNTATCATQRLAHFLRHSSPNFGAIPSSTPVGSNTY-NH2
modifications: disulfide 2-7; N-terminus assumed
SMILES: CC[C@H](C)[C@H](NC(=O)[C@H](C)NC(=O)CNC(=O)[C@H](Cc1ccccc1)NC(=O)[C@H](CC(N)=O)NC(=O)[C@@H]1CCCN1C(=O)[C@H](CO)NC(=O)[C@H](CO)NC(=O)[C@H](Cc1c[nH]cn1)NC(=O)[C@H](CCCNC(=N)N)NC(=O)[C@H](CC(C)C)NC(=O)[C@H](Cc1ccccc1)NC(=O)[C@H](Cc1c[nH]cn1)NC(=O)[C@H](C)NC(=O)[C@H](CC(C)C)NC(=O)[C@H](CCCNC(=N)N)NC(=O)[C@H](CCC(N)=O)NC(=O)[C@@H](NC(=O)[C@H](C)NC(=O)[C@@H]1CSSC[C@H](NC(=O)[C@@H](N)CCCCNC(=O)CC[C@H](NC(=O)CCCCCCCCCCCCCCCCCCC(=O)O)C(=O)O)C(=O)N[C@@H](CC(N)=O)C(=O)N[C@@H]([C@@H](C)O)C(=O)N[C@@H](C)C(=O)N[C@@H]([C@@H](C)O)C(=O)N1)[C@@H](C)O)C(=O)N1CCC[C@H]1C(=O)N[C@@H](CO)C(=O)N[C@@H](CO)C(=O)N[C@H](C(=O)N1CCC[C@H]1C(=O)N[C@H](C(=O)NCC(=O)N[C@@H](CO)C(=O)N[C@@H](CC(N)=O)C(=O)N[C@H](C(=O)N[C@@H](Cc1ccc(O)cc1)C(N)=O)[C@@H](C)O)C(C)C)[C@@H](C)O
notes: also called 14H, 17R, 21P, 27P, 31P
B5: N^ε1-[(4S)-4-carboxy-4-(19-carboxynonadecanoylamino)butanoyl]-[His14,Arg17,Pro21,Pro27,Pro34,Pro37]-h-amylin (peptide)
peptide: K([γGlu-C20 diacid])CNTATCATQRLAHFLRHSSPNFGAIPSSTNVGPNTP-NH2
modifications: disulfide 2-7; N-terminus assumed
SMILES: CC[C@H](C)[C@H](NC(=O)[C@H](C)NC(=O)CNC(=O)[C@H](Cc1ccccc1)NC(=O)[C@H](CC(N)=O)NC(=O)[C@@H]1CCCN1C(=O)[C@H](CO)NC(=O)[C@H](CO)NC(=O)[C@H](Cc1c[nH]cn1)NC(=O)[C@H](CCCNC(=N)N)NC(=O)[C@H](CC(C)C)NC(=O)[C@H](Cc1ccccc1)NC(=O)[C@H](Cc1c[nH]cn1)NC(=O)[C@H](C)NC(=O)[C@H](CC(C)C)NC(=O)[C@H](CCCNC(=N)N)NC(=O)[C@H](CCC(N)=O)NC(=O)[C@@H](NC(=O)[C@H](C)NC(=O)[C@@H]1CSSC[C@H](NC(=O)[C@@H](N)CCCCNC(=O)CC[C@H](NC(=O)CCCCCCCCCCCCCCCCCCC(=O)O)C(=O)O)C(=O)N[C@@H](CC(N)=O)C(=O)N[C@@H]([C@@H](C)O)C(=O)N[C@@H](C)C(=O)N[C@@H]([C@@H](C)O)C(=O)N1)[C@@H](C)O)C(=O)N1CCC[C@H]1C(=O)N[C@@H](CO)C(=O)N[C@@H](CO)C(=O)N[C@H](C(=O)N[C@@H](CC(N)=O)C(=O)N[C@H](C(=O)NCC(=O)N1CCC[C@H]1C(=O)N[C@@H](CC(N)=O)C(=O)N[C@H](C(=O)N1CCC[C@H]1C(N)=O)[C@@H](C)O)C(C)C)[C@@H](C)O
notes: also called 14H, 17R, 21P, 27P, 34P, 37P
B6: N^ε1-[(4S)-4-carboxy-4-(19-carboxynonadecanoylamino)butanoyl]-[His14,Arg17,Pro21,Pro27]-h-amylin (peptide)
peptide: K([γGlu-C20 diacid])CNTATCATQRLAHFLRHSSPNFGAIPSSTNVGSNTY-NH2
modifications: disulfide 2-7; N-terminus assumed
SMILES: CC[C@H](C)[C@H](NC(=O)[C@H](C)NC(=O)CNC(=O)[C@H](Cc1ccccc1)NC(=O)[C@H](CC(N)=O)NC(=O)[C@@H]1CCCN1C(=O)[C@H](CO)NC(=O)[C@H](CO)NC(=O)[C@H](Cc1c[nH]cn1)NC(=O)[C@H](CCCNC(=N)N)NC(=O)[C@H](CC(C)C)NC(=O)[C@H](Cc1ccccc1)NC(=O)[C@H](Cc1c[nH]cn1)NC(=O)[C@H](C)NC(=O)[C@H](CC(C)C)NC(=O)[C@H](CCCNC(=N)N)NC(=O)[C@H](CCC(N)=O)NC(=O)[C@@H](NC(=O)[C@H](C)NC(=O)[C@@H]1CSSC[C@H](NC(=O)[C@@H](N)CCCCNC(=O)CC[C@H](NC(=O)CCCCCCCCCCCCCCCCCCC(=O)O)C(=O)O)C(=O)N[C@@H](CC(N)=O)C(=O)N[C@@H]([C@@H](C)O)C(=O)N[C@@H](C)C(=O)N[C@@H]([C@@H](C)O)C(=O)N1)[C@@H](C)O)C(=O)N1CCC[C@H]1C(=O)N[C@@H](CO)C(=O)N[C@@H](CO)C(=O)N[C@H](C(=O)N[C@@H](CC(N)=O)C(=O)N[C@H](C(=O)NCC(=O)N[C@@H](CO)C(=O)N[C@@H](CC(N)=O)C(=O)N[C@H](C(=O)N[C@@H](Cc1ccc(O)cc1)C(N)=O)[C@@H](C)O)C(C)C)[C@@H](C)O
notes: also called 14H, 17R, 21P, 27P

Molecular target: T1, human amylin receptor
Assay: SPA competition binding, displacement of 125I-rat amylin from membranes with human amylin 3(a) receptor (Assay V)
Method in brief: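 SPA beads with BHK Amylin 3(a)/CRE-luc cell membranes (35 ng/μL final) in 50 mM Hepes pH 7.4, 1 mM CaCl2, 5 mM MgCl₂, 0.1% OA, 0.02% Tween20.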

Binder	IC50 [nM]
B1	0.271
B2	0.396
B3	0.082
B4	0.098
B5	0.131
B6	0.169
